{
  "source": "patent US12228567B2",
  "about": "“Colorimetric sensor kit for screening therapeutic agent for neurodegenerative disease, including amyloid shelled-gold nanoparticle, and method for screening therapeutic agent for neurodegenerative disease” (Korea University Research and Business Foundation, priority 2019, dated 2025)",
  "key": {"[1]": {"target": "T1, Aβ(1-42) (Homo sapiens, UniProt P05067)", "T1 construct": "can degrade Aβ(1-42)", "T1 sequence (P05067 672-713 limits assumed)": "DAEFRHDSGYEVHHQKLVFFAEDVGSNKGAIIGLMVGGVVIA", "experiment": "Degradation activity of MMP-9 for the amyloid-gold nanoparticle, Aβ(1-42)", "type": "biochemical", "conditions": "ASGN made with Aβ(1-42)", "description": "(§1) For investigation of the reactivity of the Amyloid Shelled-Gold Nanoparticle (ASGN), the reactivity of the amyloid-gold nanoparticle with amyloid-degrading proteases (protease XIV and matrix metallopeptidase 9 (MMP-9)) was investigated. As a result, it was confirmed that the composite of the present disclosure can be used not only for drug screening but also for investigation of the activity of an amyloid-degrading enzyme.\n(§2) Therefore, MMP-9 degrades and removes Aβ(1-42) in the Golgi apparatus and the cytoplasm in the neurons of the brain."}, "[2]": {"target": "Aβ(1-40) (Homo sapiens, UniProt P05067)", "sequence (P05067 672-711 limits assumed)": "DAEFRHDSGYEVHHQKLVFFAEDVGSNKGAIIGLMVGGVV", "experiment": "Degradation activity of MMP-9 for the amyloid-gold nanoparticle, Aβ(1-40)", "type": "biochemical", "conditions": "ASGN made with Aβ(1-40)", "description": "as §1, §2"}},
  "data": [
    {"substance": "matrix metallopeptidase 9 [MMP-9]", "values": [
      {"measurement": "degradation of Aβ(1-42) on the amyloid-gold nanoparticle", "setting": "[1]", "value": "specifically degrades Aβ(1-42) only"},
      {"measurement": "degradation of Aβ(1-40) on the amyloid-gold nanoparticle", "setting": "[2]", "value": "cannot degrade"}
    ]}
  ]
}
